Source: patent US20220220215A1 (CRESCENDO BIOLOGICS, published 2022)
Residue numbers refer to the chain shown, from its start. Names may count otherwise.

B1: TPP-1408 PD138G7(G109D)-1GS-HSA2-1GS-CD137D (bispecific antibody)
chain: EVQLVESGGGVVRPGGSLRLSCAASGFTFDDYAMSWVRQAPGKGLEWVSGITWNGGSTGYADSVKDRFTISRDNAKNSLYLQMNSLRAEDTALYYCVRDKYSYAWSYDDFDIWGQGTMVTVSSGGGGSEVQLVESGGGLVKPGGSLRLSCAASGFTFSNYNMNWVRQAPGKGLEWVSSISSAGTHIYYADSVKGRFTISRDNAKNSLYLQMNSLRAEDTAVYYCARDPHSTGWYKDFDYWGQGTLVTVSSGGGGSEVQLVESGGGVVQPGGSLRLSCAASGFTFSNYGMHWVRQAPGKGLEWVAVISNDGNTKTYADSVKGRFTISRDNSKNTLYLQMNSLRAEDTAVYYCAQDETTTVTASYYFDYWGQGTLVTVSS
B2: TPP-942: PDA-6GS-172E1-13-6GS-HSA2-2-His (bispecific antibody)
chain: EVQLVESGGGLVQPGRSLRLSCAASGFTFDDYALHWVRQAPGKDLEWVSGISWNGGSYGYADSVKGRFTISRDNAKNSLYLQMNSLRAEDTALYYCVREKGPGLTGSTADYYGLDAWGQGTMVTVSSGGGGSGGGGSGGGGSGGGGSGGGGSGGGGSEVQLVESGGGVVQPGGSLRLSCAASGFTFSNYGMHWVRQAPGKGLEWVAVISNDGNTKTYADSVKGRFTISRDNSKNTLYLQMNSLRAEDTAVYYCAQDETTTVTASYYFDYWGQGTLVTVSSGGGGSGGGGSGGGGSGGGGSGGGGSGGGGSEVQLVESGGGLVKPGGSLRLSCAASGFTFSNYNMNWVRQAPGKGLEWVSSISSAGTHIYYADSVKGRFTISRDNAKNSLYLQMNSLRAEDTAVYYCARDPHSTGWYKDFDYWGQGTLVTVSSAAAHHHHHH
notes: Single-chain fusion of VH single domains (PD-1 VH, CD137 VH, HSA VH) joined by 6GS linkers, His tag
B3: TPP-1410 PD138G7(G109D)-1GS-CD137A-6GS-HSA2 (bispecific antibody)
chain: EVQLVESGGGVVRPGGSLRLSCAASGFTFDDYAMSWVRQAPGKGLEWVSGITWNGGSTGYADSVKDRFTISRDNAKNSLYLQMNSLRAEDTALYYCVRDKYSYAWSYDDFDIWGQGTMVTVSSGGGGSEVQLVESGGGLVQPGGSLRLSCAASGFTLSNYWMNWVRQAPGKGLEWVANINQDGSERYYVDSVKGRFTISRDNAKNSLYLQMNSLRAEDTAVYYCARGGEGYGVDHYGLDVSGQGTTVTVSSGGGGSGGGGSGGGGSGGGGSGGGGSGGGGSEVQLVESGGGLVKPGGSLRLSCAASGFTFSNYNMNWVRQAPGKGLEWVSSISSAGTHIYYADSVKGRFTISRDNAKNSLYLQMNSLRAEDTAVYYCARDPHSTGWYKDFDYWGQGTLVTVSS
B4: TPP-1025: CD137A -6GS-HSA3-2-6GS-PDA2-His (bispecific antibody)
chain: EVQLVESGGGLVQPGGSLRLSCAASGFTLSNYWMNWVRQAPGKGLEWVANINQDGSERYYVDSVKGRFTISRDNAKNSLYLQMNSLRAEDTAVYYCARGGEGYGVDHYGLDVSGQGTTVTVSSGGGGSGGGGSGGGGSGGGGSGGGGSGGGGSEVQLLESGGGLVKPGGSLRLSCAASGFTVSSYTMNWVRQAPGKGLEWVSSISSSGRYIYYADSVKGRFTISRDNAKNSLYLQMNSLRAEDTAVYYCARDPRMVGNPHEFDIWGQGTMVTVSSGGGGSGGGGSGGGGSGGGGSGGGGSGGGGSEVQLVESGGGVVRPGGSLRLSCAASGFTFDDYAMSWVRQAPGKGLEWVSGITWNAGSTGYADSVKGRFTISRDNAKNSLYLQMNSLRAEDTALYYCVRDKYSYAWSYDDFDIWGQGTMVTVSSAAAHHHHHH
notes: Single-chain VH fusion (CD137 VH, HSA VH, PD-1 VH), His tag
B5: TPP-951: PDA2-6GS-172E1-13-6GS-HSA3-His (bispecific antibody)
chain: EVQLVESGGGVVRPGGSLRLSCAASGFTFDDYAMSWVRQAPGKGLEWVSGITWNAGSTGYADSVKGRFTISRDNAKNSLYLQMNSLRAEDTALYYCVRDKYSYAWSYDDFDIWGQGTMVTVSSGGGGSGGGGSGGGGSGGGGSGGGGSGGGGSEVQLVESGGGVVQPGGSLRLSCAASGFTFSNYGMHWVRQAPGKGLEWVAVISNDGNTKTYADSVKGRFTISRDNSKNTLYLQMNSLRAEDTAVYYCAQDETTTVTASYYFDYWGQGTLVTVSSGGGGSGGGGSGGGGSGGGGSGGGGSGGGGSEVQLLESGGGLVKPGGSLRLSCAASGFTVSSYTMNWVRQAPGKGLEWVSSISSSGRYIYYADSVKGRFTISRDNAKNSLYLQMNSLRAEDTAVYYCARDPRMVGNPHEFDIWGQGTMVTVSSAAAHHHHHH
B6: 003BB172-E01-5 (VHH)
VHH: EVQLVESGGGLVQPGGSLRLSCAASGFTFSNYGMHWVRQAPGKRLEWVAVISNDGNTKTYADSVKGRFTISRDNSKNTLYLQMNSLRTEDTAVYYCAQDETTTVTASYYFDYWGQGTLVTVSS
notes: Human VH single domain antibody, monovalent
B7: 003BB172-E01-12 (VHH)
VHH: B6 VHH with G16R, R44G, T88A
notes: as for B6
B8: 003BB172-E01-9 (VHH)
VHH: B6 VHH with R44G, T88A
notes: as for B6
B9: 003BB172-E01-13 (VHH)
VHH: B6 VHH with L11V, R44G, T88A
notes: Human VH single domain antibody, monovalent; also called CD137D; 172E1-13
B10: 003BB172-E01-11 (VHH)
VHH: B6 VHH with L11V, G16R, R44G
notes: as for B6
B11: 003BB172-E01-7 (VHH)
VHH: B6 VHH with R44G
notes: Human VH single domain antibody, monovalent; also called CD137C
B12: 003BB172-E01-6 (VHH)
VHH: B6 VHH with R44G, T78M
notes: Human VH single domain antibody, monovalent; also called CD137B
B13: 003BB172-E01-8 (VHH)
VHH: B6 VHH with L11V, R44G
notes: as for B6
B14: 003BB172-E01-10 (VHH)
VHH: B6 VHH with G16R, R44G
notes: as for B6
B15: TPP-1411 PD138G7(G109D)-1GS-CD137A-1GS-HSA2 (bispecific antibody)
chain: EVQLVESGGGVVRPGGSLRLSCAASGFTFDDYAMSWVRQAPGKGLEWVSGITWNGGSTGYADSVKDRFTISRDNAKNSLYLQMNSLRAEDTALYYCVRDKYSYAWSYDDFDIWGQGTMVTVSSGGGGSEVQLVESGGGLVQPGGSLRLSCAASGFTLSNYWMNWVRQAPGKGLEWVANINQDGSERYYVDSVKGRFTISRDNAKNSLYLQMNSLRAEDTAVYYCARGGEGYGVDHYGLDVSGQGTTVTVSSGGGGSEVQLVESGGGLVKPGGSLRLSCAASGFTFSNYNMNWVRQAPGKGLEWVSSISSAGTHIYYADSVKGRFTISRDNAKNSLYLQMNSLRAEDTAVYYCARDPHSTGWYKDFDYWGQGTLVTVSS
B16: TPP-1409 CD137A-1GS-HSA2-1GS-PD138G7(G109D) (bispecific antibody)
chain: EVQLVESGGGLVQPGGSLRLSCAASGFTLSNYWMNWVRQAPGKGLEWVANINQDGSERYYVDSVKGRFTISRDNAKNSLYLQMNSLRAEDTAVYYCARGGEGYGVDHYGLDVSGQGTTVTVSSGGGGSEVQLVESGGGLVKPGGSLRLSCAASGFTFSNYNMNWVRQAPGKGLEWVSSISSAGTHIYYADSVKGRFTISRDNAKNSLYLQMNSLRAEDTAVYYCARDPHSTGWYKDFDYWGQGTLVTVSSGGGGSEVQLVESGGGVVRPGGSLRLSCAASGFTFDDYAMSWVRQAPGKGLEWVSGITWNGGSTGYADSVKDRFTISRDNAKNSLYLQMNSLRAEDTALYYCVRDKYSYAWSYDDFDIWGQGTMVTVSS

Columns and labels:
[1] = target: T1, recombinant Fc-tagged ectodomain of human CD137 (Acro Biosystems 41B-H5258) (human, UniProt Q07011 24-186); test: SPR, Biacore 8K, single-cycle kinetics; Fc-tagged ectodomain captured on Protein G chip; 1:1 model
T1 construct: Bought protein; not shown: Fc tag
Protocol: (§1) Binding of Humabody® VH constructs was measured using a single-cycle kinetics method using the BIAcore 8K instrument with 90 second sample injections with a sample concentration range of low nanomolar to high nanomolar. […] The Protein G sensor surface was regenerated with a 20 second injection of 10 mM Glycine buffer, pH 1.5 (GE Healthcare BR100354). Data were analysed using a 1:1 binding model in Biacore Insight Evaluation software, including Humabody® VH constructs with two PD-1 arms.

[2] = target: T2, recombinant Fc-tagged ectodomain of human PD1 (Acro Biosystems PD1-H5257) (human, UniProt Q15116 25-170); test: as above
T2 construct: Bought protein; not shown: Fc tag
Protocol: as §1

[3] = target: T3, human PD-1 expressed on CHO cells (human, UniProt Q15116 21-288); test: FMAT/Mirrorball on CHO huPD1 cells
T3 construct: also called CHO huPD1; CHO human PD1 cells
Protocol: (§2) Binding of His-tagged molecules to CHO human CD137, CHO parent and CHO human PD1 cells was assessed using Fluorescence Microvolume Assay Technology (FMAT). All reagents were prepared in FMAT assay buffer (pH 7.4) containing PBS, 0.1% Bovine Serum Albumin, 0.05% Sodium Azide. […] Fluorescence emission was then measured on the TTP Mirrorball plate reader in the FL2 (502 nm-537 nm) and FL5 (677-800 nm) channels following excitation at 488 nm and 640 nm. Data was gated on FL5 perimeter and peak intensity and the FL2 median mean fluorescence intensity of the gated data used for determination of VH binding. Monovalent CD137 specific Humabody® VH, and trispecific molecules with a CD137 binding arm bound to CHO CD137 expressing cells. Trispecific Humabody® VH, with a PD1 binding arm bound to PD1 expressing cells.

[4] = target: T4, human CD137 expressed on CHO cells (human, UniProt Q07011 18-255); test: FMAT/Mirrorball on CHO huCD137 cells
T4 construct: also called CHO huCD137; CHO human CD137 cells
Protocol: as §2

[5] = target: human CD137 expressed on cells (Jurkat human CD137 NF-kB luciferase reporter cells; human CD8+ T cells) (human, UniProt Q07011 24-255); test: cell-based or functional assay
[6] = target: T5, Rhesus CD137-Fc tagged protein (rhesus, UniProt H9Z8K9 24-186); test: BLI (Octet RED384), CD137-Fc on Protein G sensor, 1:1 model
T5 construct: extracellular domain; The Octet paragraph gives no catalogue number; also called rhCD137-Fc
Protocol: Binding kinetics of purified monovalent VH molecules were measured on a ForteBio Octet RED 384 instrument. Human and Rhesus CD137-Fc tagged protein was diluted to 5 μg/ml in kinetics buffer (0.05% Tween, 1×PBS) and coupled to Protein G biosensors (ForteBio cat no. 18-5082) via the Fc tag. VH were serially diluted (typically 1:2 dilution series starting with 200 nM, VH at the highest concentration) and binding to the CD137-Fc-coupled Protein G biosensors measured. Binding kinetics were determined from the (blank subtracted) sensor gram trace using 1:1 binding models and ForteBio Octet Data Analysis 9.0 software. Example kinetic and binding affinity data obtained is shown Table 18 (monovalent VH).

Row | Binder | EC50 [4] | Kd [6] | koff [6] | kon [6] | further results
1 | B1 | – | – | – | – | Kd [1]: 95.1 nM; koff [1]: 0.00383 s⁻¹; kon [1]: 40300 M⁻¹ s⁻¹; Kd [2]: 4.45 nM; koff [2]: 0.00113 s⁻¹; kon [2]: 255000 M⁻¹ s⁻¹
2 | B2 | 0.157 nM | – | – | – | EC50 [3]: 0.164 nM
3 | B3 | – | – | – | – | Kd [1]: 1.47 nM; koff [1]: 0.000121 s⁻¹; kon [1]: 81800 M⁻¹ s⁻¹; Kd [2]: 7.57 nM; koff [2]: 0.00224 s⁻¹; kon [2]: 296000 M⁻¹ s⁻¹
4 | B4 | – | – | – | – | EC50 [3]: 1.23 nM
5 | B5 | – | – | – | – | Jurkat-CD137/CHO-PD-1 Reporter Assay EC50 [5]: 14.1 nM
6 | B6 | 1.29 nM | 11.5 nM | 0.00164 s⁻¹ | 142000 M⁻¹ s⁻¹ | –
7 | B7 | 1.21 nM | 38.6 nM | 0.0023 s⁻¹ | 59700 M⁻¹ s⁻¹ | –
8 | B8 | 0.849 nM | 23 nM | 0.00235 s⁻¹ | 102000 M⁻¹ s⁻¹ | –
9 | B9 | 0.954 nM | 22.8 nM | 0.00253 s⁻¹ | 111000 M⁻¹ s⁻¹ | –
10 | B10 | 1.21 nM | 33.1 nM | 0.0024 s⁻¹ | 72500 M⁻¹ s⁻¹ | –
11 | B11 | 1.28 nM | 40.7 nM | 0.00233 s⁻¹ | 57300 M⁻¹ s⁻¹ | –
12 | B12 | 1.08 nM | 39 nM | 0.00287 s⁻¹ | 73600 M⁻¹ s⁻¹ | –
13 | B13 | 1.08 nM | 41.4 nM | 0.00269 s⁻¹ | 65000 M⁻¹ s⁻¹ | –
14 | B14 | 1.22 nM | 36.9 nM | 0.00249 s⁻¹ | 67400 M⁻¹ s⁻¹ | –
15 | B15 | – | – | – | – | Kd [1]: 1.93 nM; koff [1]: 0.000208 s⁻¹; kon [1]: 108000 M⁻¹ s⁻¹; Kd [2]: 4.98 nM; koff [2]: 0.00267 s⁻¹; kon [2]: 537000 M⁻¹ s⁻¹
16 | B16 | – | – | – | – | Jurkat-CD137/CHO-PD-1 Reporter Assay EC50 [5]: 0.134 nM; Kd [1]: 2.02 nM; koff [1]: 0.000307 s⁻¹; kon [1]: 152000 M⁻¹ s⁻¹; Kd [2]: 4.16 nM; koff [2]: 0.00241 s⁻¹; kon [2]: 580000 M⁻¹ s⁻¹
